The text below walks through data of paper PMC6368601.

For the assay, the target named is taxol-stabilized microtubules polymerized from bovine brain tubulin dimers (bovine) (UniProt Q6B856). The experiment in a line: co-sedimentation; 100 nM ISB (WT, MTBM or Δ20) with various concentrations of taxol-stabilized microtubules; BRB80, 1 mM DTT, 50 mM NaCl, 20 uM paclitaxel; 15 min at room temperature; 50% glycerol cushion, 279,000 x g; blot with anti-Borealin; apparent Kd from a one-site specific binding fit of three experiments.

Take “ISB^Δ20: INCENP^1-58-Survivin-Borealin lacking the N-terminal 20 amino acids of Borealin (from UniProt Q9NQS7 1-58; O15392 1-142; Q53HL2 21-280) (complex)”: the Kd came out at 750 nM.
The same measure for “INCENP^1-58-Survivin-Borealin complex (ISB^WT), centromere-targeting region of human CPC (from UniProt Q9NQS7 1-58; O15392 1-142; Q53HL2 1-280)”: 164 nM.
